Data on one molecule can be found in patent US20260022144A1, “ANALGESIC POLYPEPTIDE” (Shanghai Puyou Biomedical Co., Ltd., priority 2022, published 2026).

Assay [1] relates to VZV-induced pain model in rats. In words: VZV-induced pain model in rats, mechanical allodynia (von Frey) test. Type of assay: in vivo, rat. Particulars: for 50% PWT (paw withdrawal threshold), analgetic effect: vs placebo. On the procedure:
A summary of the method for inducing pain model in rats by means of subcutaneous VZV inoculation is provided hereinafter. Briefly, male Sprague Dawley (SD) rats were deeply anesthetized by intraperitoneal injection of a Zoletil R: 50 (30 mg/kg)/xylazine (6 mg/kg) anesthetic at an injection volume of 6 mL/kg, and then the virus inoculation was performed by subcutaneous injection at the footpad area. The infection dose was 22800 TCID50 per animal, and the infection volume was 150 μL for all rats.
Administration was performed on alternate days. Briefly, the test articles were administered by subcutaneous injection at the footpad area on Day 1 and Day 3, respectively. As for Group 2, the administration of SEQ ID NO: 29 was initiated from the first concentration. Namely, the first concentration (10 μg/mL) was administered on Day 1, and the second concentration (20 μg/mL) was administered on Day 3. Pain was measured once after each administration.
Mechanical allodynia tests (also called “von Frey tests”) for pain measurements were performed on the rats one hour after administration of the test articles on Day 1 and Day 3, respectively. In the behavioral test for rats, mechanical allodynia is expressed as the 50% paw withdrawal threshold (PWT), which is calculated according to the following formula:
[formula] • wherein • Xf=final test fiber value used in the test • k=tabular value for the pattern of positive/negative responses (Chaplan et al. 1994, page 62) • δ=mean difference.
Briefly, the rats were placed individually in plexiglass boxes with a grid at the bottom to ensure that the rats' feet could be tested. The rats were acclimated to the environment for 15 minutes prior to the test. After the acclimation was completed, pain (mechanical allodynia) was tested on the center of the sole of the left hind foot of the rats using test fibers. The test fibers included 8 test strengths: 3.61 (0.4 g), 3.84 (0.6 g), 4.08 (lg), 4.31 (2 g), 4.56 (4 g), 4.74 (6 g), 4.93 (8 g) and 5.18 (15 g). During the test, the test fibers were pressed vertically against the skin and forces were applied to bend the fibers for 6-8 seconds with a 5-second interval between each test. During the test, a pain response was recorded if the animals quickly withdrew their feet. The pain response was also recorded if the animal withdrew their feet as the test fibers left the animal's skin. The pain response was not recorded if the animal moved or ambulated, and the test should be repeated. The test was started with 4.31 (2 g). If the animal had pain response, the next test should be performed with a test fiber with a lower strength: if the animal has no pain response, the next test should be performed with a test fiber with a higher strength. The maximum strength of the tested fibers was 5.18 (15 g). The test results were recorded in a table, wherein the presence of pain response was recorded as “x”, and the absence of pain response was recorded as “0”.
The rats were randomly divided into 2 groups, with 8 rats in the placebo group (Group 1, administered with vehicle (normal saline)) and 8 rats in the treatment group (Group 2, administered with 30 mg SEQ ID NO: 29/kg). Briefly, the test articles were administered to the rats on a single day by intravenous injection.
Mechanical allodynia tests were performed on the rats 0.5 h after administration of the test articles according to the method as recited in Example 1, respectively.
The rats were randomly divided into 3 groups, with 8 rats in the placebo group (Group 1, administered with vehicle (normal saline)) and 16 rats in the treatment groups (Groups 2 and 3, 8 rats/group, administered with various polypeptides). Briefly, vehicle (normal saline) was administered to the rats from Group 1 and various polypeptides were administered to the rats from Group 2 (SEQ ID: 29, SEQ ID: 57 and SEQ ID: 49; 10 mg polypeptide/kg) and 3 (SEQ ID: 75 and SEQ ID: 28: 10 mg polypeptide/kg) on a single day by intravenous injection.

Assay [2] has as its system bone pain model induced by Walker 256 breast cancer cells in rats. Kind of assay: Bone pain model induced by Walker 256 breast cancer cells in rats, mechanical allodynia test. Type of assay: in vivo, rat. Particulars: Wistar rats; for pain thresholds (50% PWT) of treatment group vs model group: 60 mg/kg i.v. once a day. On the procedure:
28 female Wistar rats in total were randomly divided into 3 groups based on body weights, with 8 rats in the Sham group (Group 1, administered with vehicle (normal saline)), 10 rats in the model group (Group 2, administered with vehicle (normal saline)) and 10 rats in the treatment group (Group 3, administered with 60 mg SEQ ID NO: 29/kg).
A summary of the method for inducing bone pain model in rats by means of intratibial injection of a suspension of Walker 256 breast cancer cells is provided hereinafter. Briefly, the rats were anesthetized, then 4 μL of a suspension of Walker 256 cancer cells (containing about 4× 10^5 cells) was injected into the tibia cavity of the right hind limb of the rats (day 0). The rats in Sham group were injected with an equal volume of normal saline.
After injection of cancer cells (day 0), administration was started on the next day (day 1) and performed once a day for a consecutive period of 14 days (day 1, day 2 . . , day 14, respectively).
The rats were subjected to mechanical allodynia tests 1 h before and after administration of the test articles according to the method as recited in Example 1 on day 7 (D7) and day 14 (D14), respectively.

B1: SEQ ID NO: 29: exemplary polypeptide of the present disclosure; artificial polypeptide of formula (I) X-Y (protein)
chain: SEKKQPVDLGLLEEDDEFEEFPAEDWAGLDEDEDAHVWEDNWDDDNVEDDFSNQLRATVLLMILVAETPYGAYVLHQKGRMASAFLAA
Consider B1, for which the “analgetic effect (50% PWT)” value in assay [1] (10 mg polypeptide/kg i.v., single administration, tested 0.5 h after administration) is recorded as “apparent analgetic effect”. Moreover, the “50% PWT (paw withdrawal threshold), analgetic effect” value was “significantly increased the 50% PWT values of the rats” in assay [1] (30 mg/kg i.v., single administration, tested 0.5 h after administration) and “increased the 50% PWT values of the rats in a dose-dependent manner” in assay [1] (s.c. (footpad) 10 then 20 μg/mL, 50 μL, tested 1 h after administration). For the same molecule, the “course of pain thresholds (50% PWT) of treatment group vs model group” value in assay [2] (60 mg/kg i.v. once a day for 14 days) was “increased gradually with the increase of the number of administrations”. In addition, the “pain thresholds (50% PWT) of treatment group vs model group” value in assay [2] (1 h after administration on day 7 (D7)) is recorded as “increased significantly”; in assay [2] (1 h after administration on day 14 (D14)), “increased significantly”; in assay [2] (before administration on day 7 (D7)) it was “no significant difference”; in assay [2] (before administration on day 14 (D14)), “increased significantly”.
